Results on twelve substances are retold here after article PMC2806950.

In series [1] the target is M.EcoKI, DNA methyltransferase component (M2S1) of the EcoKI type I R/M system (E. coli K12) (UniProt P08957). Put plainly: fluorescence polarisation; competition with DNA: M.EcoKI titrated into 50 nM Ocr and 2 nM of a 21-bp DNA duplex fluorescently labelled at the 5' end; anisotropy of the DNA monitored.
Series [2] relates to M.EcoKI (M2S1 methyltransferase core of EcoKI). The experiment in a line: fluorescence anisotropy. The arrangement: unit not given here. The following applies: Anisotropy: M.EcoKI titrated into 2 nM labelled duplex (with 50 nM Ocr in the competition series); buffer and temperature not given (ref. 12). ITC buffer ….
The target of series [3] is M.EcoKI, DNA methyltransferase component (M2S1) of the EcoKI type I R/M system (E. coli K12) (UniProt P08957). The experiment in a line: ITC; Ocr (typically 40 uM) titrated into M.EcoKI (4 uM); 20 mM Tris-HCl pH 8.0, 6 mM MgCl2, 7 mM 2-mercaptoethanol, 100 uM SAM, with or without 500 mM NaCl; 10 to 30 °C. On the technique in general: In ITC the heat of successive injections is recorded.

In series [4] the target is T1, M.EcoKI methyltransferase (M2S1 core of the EcoKI type I restriction/modification enzyme) (UniProt P05719+P08957). The experiment in a line: ITC. The conditions noted are these: pH 8.0, 25 °C, no NaCl, 6 mM MgCl2.
For series [5], the target named is T1, M.EcoKI methyltransferase (M2S1 core of the EcoKI type I restriction/modification enzyme). Put plainly: ITC in two buffers of different ionisation enthalpy (comparison of C1 and C2). The conditions noted are these: pH 8.0; 25 °C; no NaCl; 6 mM MgCl2; 20 mM Tris-HCl pH 8.0 (47.4 kJ/mol) versus 20 mM Hepes (20.5 kJ/mol).

With “Ocr chemically modified with EDC/HOBt and ammonium hydroxide for 120 min (N-series) (from UniProt P03775 1-117) (natural protein)”, the Kd in series [1] is 3.77 nM. Turning to “Ocr chemically modified with EDC/HOBt and dimethylamine for 60 min (D-series) (from UniProt P03775 1-117) (natural protein)”, the Kd in series [1] was 19.7 nM. On the same count and under the same terms, the same measure for “Ocr chemically modified with EDC/HOBt and dimethylamine for 30 min (D-series) (from UniProt P03775 1-117) (natural protein)”: 5.8 nM. For 21-bp DNA duplex, in series [2], the Kd worked out at 2.1. In series [1], “Ocr chemically modified with EDC/HOBt and ammonium hydroxide for 30 min (N-series) (from UniProt P03775 1-117) (natural protein)” displayed a Kd of 1.82 nM. “Ocr chemically modified with EDC/HOBt and ammonium hydroxide for 60 min (N-series) (from UniProt P03775 1-117) (natural protein)”: the Kd in series [1] worked out at 1.9 nM. The stoichiometry N (Ocr dimer per molecule of M.EcoKI) in series [3] came to 1. Substance “Ocr chemically modified with EDC/HOBt and ammonium hydroxide for 15 min (N-series) (from UniProt P03775 1-117) (natural protein)” registered a Kd in series [1] of 0.56 nM. The same measure, in the same setting: for “Ocr chemically modified with EDC/HOBt and ammonium hydroxide for 180 min (N-series) (from UniProt P03775 1-117) (natural protein)” the value was 12.6 nM; for “Ocr chemically modified with EDC/HOBt and dimethylamine for 120 min (D-series) (from UniProt P03775 1-117) (natural protein)”, 23.1 nM. In the case of “Ocr (overcome classical restriction; gene 0.3 protein), unmodified wild type”, the ΔH result in series [4] (20 mM Hepes in place of Tris-HCl (heat of ionization = 20.5 kJ/mol as printed), pH not restated, taken as 8.0) was “− 90.0 kJ/mol”; in series [4] (20 mM Tris-HCl, pH 8.0 (heat of ionization = 47.4 kJ/mol as printed)) it was “− 86.2 kJ/mol”. In series [5], this substance showed a net protonation change on binding (no number given) of 0 protons. Turning to “Ocr chemically modified with EDC/HOBt and dimethylamine for 180 min (D-series) (from UniProt P03775 1-117) (natural protein)”, the Kd in series [1] was determined as 26.6 nM. “Ocr chemically modified with EDC/HOBt and dimethylamine for 15 min (D-series) (from UniProt P03775 1-117) (natural protein)” displayed a Kd in series [1] of 2.64 nM. In series [3], this substance gave a stoichiometry N (Ocr dimer per molecule of M.EcoKI) of 1.
